± gives the uncertainty stated by the source.
Experiment: self-splicing fitness, log relative to wild type (ln ratio); higher = more splicing; Tetrahymena group I intron in knt gene, E. coli kanamycin selection, DiMSum; sequences stand for … in CUCUCU…GGAGGGAAAAGUUAUCAGGCAUGCACCUGGUAGCUAGUCUUUAAACCAAUAGAUUGCAUCGGUUUAAAAGGCAAGACCGUCAAAUUGCGGGAAAGGGGUCAACAGCCGUUCAGUACCAAGUCUCAGGGGAAACUUUGAGAUGGCCUUGCAAAGGGUAUGGUAAUAAGCUGACGGACAUGGUCCUAACCACGCAGCCAAGUCCUAAGUCAACAGAUCUUCUGUUGAUAUGGAUGCAGUUCACAGACUAAAUGUCGGUCGGGGAAGAUGUAUUCUUCUCAUAAGAUAUAGUCGGACCUCUCCUUAAUGGGAGCUAGCGGAUGAAGUGAUGCAACACUGGAGCCGCUGGGAACUAAUUUGUAUGCGAAAGUAUAUUGAUUAGUUUUGGAGUACUCGUGGUCG
Method in brief: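 A randomised library covering all eight P1ex-region intron nucleotides was built with the intron in the knt kanamycin-resistance gene on pET-22b(+) and held in E. coli BL21(DE3). Cells were grown overnight at 37°C or 30°C on LB agar, with or without 25 μg/mL kanamycin, plus 100 μg/mL carbenicillin, 50 μM IPTG and 0.2% rhamnose, and pooled colonies were amplicon-sequenced on an Illumina HiSeq 2500. DiMSum fitness is the error-weighted combination of wild-type-normalised replicate fold changes, kanamycin versus none.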

Sequence	self-splicing fitness (ln) (30 °C)	self-splicing fitness (ln) (37 °C)
CUUUAGCAAUAUUACGCAUU	-4.72 ± 0.31	-3.51 ± 0.23
CUUUAGCAAUAUUACGCCAG	-1.65 ± 0.28	-0.616 ± 0.28
CUUUAGCAAUAUUACGCGGC	-2.41 ± 0.35	-0.897 ± 0.17
CUUUAGCAAUAUUACGGAUU	–	-1.57 ± 0.41
CUUUAGCAAUAUUACGGGAC	-3.25 ± 0.36	-2.36 ± 0.42
CUUUAGCAAUAUUACGGUAA	-2.37 ± 0.23	-2.12 ± 0.26
CUUUAGCAAUAUUACGGUAG	-1.81 ± 0.085	-0.685 ± 0.11
CUUUAGCAAUAUUACGUACC	–	-1.68 ± 0.3
CUUUAGCAAUAUUACGUAGG	-1.05 ± 0.094	-0.65 ± 0.13
CUUUAGCAAUAUUACGUAUC	-3.56 ± 0.35	-3.21 ± 0.4
CUUUAGCAAUAUUACGUAUG	-0.82 ± 0.11	-0.4 ± 0.12
GAAAAGCAAUAUUACGAAAC	-2.88 ± 0.14	-0.0376 ± 0.11
GAAAAGCAAUAUUACGACGC	-0.132 ± 0.069	0.493 ± 0.093
GAAAAGCAAUAUUACGACUG	-0.58 ± 0.094	-0.857 ± 0.1
GAAAAGCAAUAUUACGACUU	-0.183 ± 0.063	0.52 ± 0.096
GAAAAGCAAUAUUACGAGAC	-2.59 ± 0.29	-0.985 ± 0.16
GAAAAGCAAUAUUACGAUAG	-3.28 ± 0.15	-1.69 ± 0.15
GAAAAGCAAUAUUACGAUCU	-0.472 ± 0.075	-0.478 ± 0.085
GAAAAGCAAUAUUACGCAGC	-2.9 ± 0.17	-1.74 ± 0.19
GAAAAGCAAUAUUACGCCUG	-0.929 ± 0.081	-0.273 ± 0.11
GAAAAGCAAUAUUACGCGGC	-3.33 ± 0.19	-3.07 ± 0.26
GAAAAGCAAUAUUACGCGGU	-3.4 ± 0.21	-1.21 ± 0.16
GAAAAGCAAUAUUACGCUCU	-2.07 ± 0.13	-1.27 ± 0.13
GAAAAGCAAUAUUACGGAAG	-3.88 ± 0.31	-1.32 ± 0.16

Sequence	self-splicing fitness (ln) (30 °C)	self-splicing fitness (ln) (37 °C)
GAAAAGCAAUAUUACGGACA	-0.576 ± 0.056	-0.269 ± 0.064
GAAAAGCAAUAUUACGGACG	-1.05 ± 0.092	-0.401 ± 0.1
GAAAAGCAAUAUUACGGAGU	-3.18 ± 0.15	-2.11 ± 0.15
GAAAAGCAAUAUUACGGCAA	-0.142 ± 0.1	-0.719 ± 0.11
GAAAAGCAAUAUUACGGGUU	-1.27 ± 0.095	-1.22 ± 0.12
GAAAAGCAAUAUUACGUCAC	-2.2 ± 0.19	-1.64 ± 0.31
GAAAAGCAAUAUUACGUCUC	-1.3 ± 0.073	-0.38 ± 0.092
GAAAAGCAAUAUUACGUGUG	-2.31 ± 0.062	-1.06 ± 0.072
GAAAAGCAAUAUUACGUUUU	-3.8 ± 0.18	-2.4 ± 0.13
GAACAGCAAUAUUACGAACC	-1.6 ± 0.12	-0.809 ± 0.13
GAACAGCAAUAUUACGACAU	-0.575 ± 0.011	-0.153 ± 0.032
GAACAGCAAUAUUACGACGA	-0.494 ± 0.085	0.265 ± 0.097
GAACAGCAAUAUUACGACUG	-1.45 ± 0.085	0.155 ± 0.1
GAACAGCAAUAUUACGAGAU	-3.55 ± 0.12	-1.4 ± 0.09
GAACAGCAAUAUUACGAGUA	-2.87 ± 0.12	-1.98 ± 0.1
GAACAGCAAUAUUACGCAUC	-2.79 ± 0.095	-2.01 ± 0.12
GAACAGCAAUAUUACGGAGC	-1.93 ± 0.057	-1.13 ± 0.083
GAACAGCAAUAUUACGGCGU	-0.302 ± 0.083	0.212 ± 0.097
GAACAGCAAUAUUACGGGAC	-2.66 ± 0.085	-1.36 ± 0.085
GAACAGCAAUAUUACGGGCA	-0.822 ± 0.096	-0.223 ± 0.093
GAACAGCAAUAUUACGGGUA	-1.54 ± 0.07	-1.32 ± 0.076
GAACAGCAAUAUUACGUAGU	-1.55 ± 0.06	-0.106 ± 0.075
GAACAGCAAUAUUACGUCCG	-1.5 ± 0.13	-0.784 ± 0.17
GAACAGCAAUAUUACGUCGG	-2.64 ± 0.16	-1.85 ± 0.28

Sequence	self-splicing fitness (ln) (30 °C)	self-splicing fitness (ln) (37 °C)
GAACAGCAAUAUUACGUCGU	-1.5 ± 0.065	-0.479 ± 0.078
GAACAGCAAUAUUACGUUGC	-3.47 ± 0.19	-3.4 ± 0.29
GAAGAGCAAUAUUACGAAAU	-3.79 ± 0.24	-1.95 ± 0.23
GAAGAGCAAUAUUACGACUA	-2.15 ± 0.29	-1.92 ± 0.24
GAAGAGCAAUAUUACGAUCC	-1.84 ± 0.39	–
GAAGAGCAAUAUUACGCAGG	-1.89 ± 0.32	–
GAAGAGCAAUAUUACGCCAC	-3.28 ± 0.41	-2.48 ± 0.41
GAAGAGCAAUAUUACGCGAG	-2.82 ± 0.17	-2.16 ± 0.23
GAAGAGCAAUAUUACGCGGU	-2.63 ± 0.14	-2.55 ± 0.25
GAAGAGCAAUAUUACGCGUC	-2.98 ± 0.42	-2.5 ± 0.48
GAAGAGCAAUAUUACGGACA	-1.14 ± 0.24	0.342 ± 0.24
GAAGAGCAAUAUUACGGCAC	-1.31 ± 0.12	-0.934 ± 0.16
GAAGAGCAAUAUUACGUAAG	-3.39 ± 0.21	-1.5 ± 0.16
GAAGAGCAAUAUUACGUACA	-3.17 ± 0.2	-2.7 ± 0.18
GAAGAGCAAUAUUACGUAGG	-3.14 ± 0.33	-1.99 ± 0.19
GAAGAGCAAUAUUACGUCUA	-1.86 ± 0.13	-1.01 ± 0.13
GAAGAGCAAUAUUACGUGAG	-2.97 ± 0.19	-1.11 ± 0.22
GAAGAGCAAUAUUACGUUUC	-2.8 ± 0.14	-2.74 ± 0.22
GAAUAGCAAUAUUACGAGAU	-3.86 ± 0.23	-1.22 ± 0.14
GAAUAGCAAUAUUACGAGCC	-1.48 ± 0.17	0.00455 ± 0.17
GAAUAGCAAUAUUACGAGCU	-1.21 ± 0.081	-0.335 ± 0.1
GAAUAGCAAUAUUACGAUCU	0.384 ± 0.078	-0.286 ± 0.079
GAAUAGCAAUAUUACGCAAC	-2.63 ± 0.21	-1.77 ± 0.3
GAAUAGCAAUAUUACGCCAA	-2.44 ± 0.23	-1.39 ± 0.16

Sequence	self-splicing fitness (ln) (30 °C)	self-splicing fitness (ln) (37 °C)
GAAUAGCAAUAUUACGGAAC	-2.37 ± 0.16	-0.0927 ± 0.15
GAAUAGCAAUAUUACGGAAU	-2.69 ± 0.17	-1.66 ± 0.2
GAAUAGCAAUAUUACGGAUC	-0.118 ± 0.058	-0.207 ± 0.073
GAAUAGCAAUAUUACGGCAA	-0.403 ± 0.14	-0.118 ± 0.14
GAAUAGCAAUAUUACGGCAU	-0.386 ± 0.065	-0.0278 ± 0.083
GAAUAGCAAUAUUACGGUCA	-0.00851 ± 0.072	-0.154 ± 0.077
GAAUAGCAAUAUUACGGUGU	-3 ± 0.13	-1.58 ± 0.14
GAAUAGCAAUAUUACGUAGC	-3.4 ± 0.17	-1.1 ± 0.12
GAAUAGCAAUAUUACGUCAA	-2.1 ± 0.14	-1.95 ± 0.13
GAAUAGCAAUAUUACGUCAG	-3.69 ± 0.31	-3.11 ± 0.4
GAAUAGCAAUAUUACGUCUU	-0.449 ± 0.059	0.342 ± 0.074
GAAUAGCAAUAUUACGUGUA	-1.82 ± 0.12	-1.49 ± 0.13
GACAAGCAAUAUUACGAAGU	-4.61 ± 0.27	-2.18 ± 0.14
GACAAGCAAUAUUACGACAA	-0.668 ± 0.11	-0.951 ± 0.1
GACAAGCAAUAUUACGACCG	-0.672 ± 0.21	-0.326 ± 0.34
GACAAGCAAUAUUACGACUU	-0.00142 ± 0.071	0.381 ± 0.088
GACAAGCAAUAUUACGAUCA	0.0763 ± 0.12	-0.0166 ± 0.15
GACAAGCAAUAUUACGCACA	-0.149 ± 0.086	-0.296 ± 0.11
GACAAGCAAUAUUACGCAGA	-3.04 ± 0.18	-1.83 ± 0.14
GACAAGCAAUAUUACGCAGG	-3 ± 0.13	-1.71 ± 0.13
GACAAGCAAUAUUACGCGAC	-1.52 ± 0.15	-1.63 ± 0.19
GACAAGCAAUAUUACGCGCC	-2.58 ± 0.18	-1.08 ± 0.21
GACAAGCAAUAUUACGCUAC	-3.62 ± 0.31	-2.54 ± 0.23
GACAAGCAAUAUUACGGAAA	-2.13 ± 0.2	-2 ± 0.23

From the supplement of paper PMC7877785
